Laboratory results as given in the DeepSol protein solubility set.

Test: soluble on expression in E. coli; label from the status in PepcDB or PDB records

Sequence	soluble on expression in E. coli
MSLRGALAGMLALGCLTTSTLAFERWTLEARGKSGYDAPKLEWVEGKTINEIKNPTIQYALPKFEGDVFWDTINAKPVVPDSIYGEFVQYGYELFVNTQAVIGPEVADPNMRYSGNNLSCNSCHLGAGTAKYAAPLVDNHANFPQYRNRENSLGTMAARVNGCMQRSMNGYPLPAEGKEMKAFLAYIHWLGQGIPVGAKIEGRSLKTVDRKMVQQNAADVKNGAEVYARDCASCHGAEGEGLRRESKDGKPAGYEFPPLWGSDDTYNTGAGMYRTLKAADFIKSTMPKGAPTLSDKDAYDVAAFINDYSHYRTVKLNRQNDFVDPKVRVPDHDQPGPYGPEGSYIFPDEGKTQMDYKVGPYKGIIKQKPAAKEGHHHHHH	not soluble
MGKNEILWGIAPIGWRNDDMPEIGAGNTLQHLLSDIVVARFQGTEVGGFFPEPAILNKELKLRNLRIAGKWFSSFILRDGLGEAAKTFTLHCEYLQQVNADVAVVSEQTYSVQSLEKNVFTEKPHFTDDEWERLCEGLNHLGEIAAQHGLKLVYHHHLGTGVQTAEEVDRLMAGTDPAHVHLLYDTGHAYISDGDYMGMLEKHIGRIKHVHFKDARLNVMEQCRLEGQSFRQSFLKGMFTVPGDGCIDFREVYQLLLKHSYSGWIVIEAEQDPDVANPLEYALIARNYIDQQLLDLALEHHHHHH	not soluble
MDDKEKNAEVAKAIKLPDLASYMQVVIKQLEIDKKWSAVHTYTYTLKSVTEFYGGKGTPVPIDEAFTSGRLKEYEEWMRLEGTRNKKTDKKRSDRKHGVPKGLSLNTISTYMRTLKAVYNRLADKKILPYNPKLFDNVYTKVESQTKRALDTKQMNTLLHTDIEKLPKEMQCALAYFLLMFLFRGMPFIDLAHLRKQDVKGKYIVYSRHKTGRQITVRIPKEAMKLIEKFKNMNYDSIYLFPILDKKNAAKEQSQKNGKIKKDKELYMNYLRVLRNFNLKLEKIATLLLPDVKLSSYTPRHTWATLAFHAGVNIGIICKALGHSSIKVTETYLKPFENEKVDIANDELIISVVAHNGEKEVA	not soluble
MGSDKIHHHHHHAADKRIDGNGNPETREIKISDYDEITFVGSADFEYEQSDKAPYLSVTIDENLFDYLVTEVEGGTLKIYPKSIKKGFNNNSYDLRPTVYKIKSNSKELKELNTVGSGSFIISKPTKVNRMEINMAGSGNVELRGPVKGYKLECNMAGSGNIIAKDIQLDNLSCSLASSGEIEVIGTVDRASFNVAGSGEIKAFDCQARKAECNIASSGEISVYATQILDANIVGSGEIHYKGDPEISKSIMGSGSINKVK	not soluble
MNLNNIRSSMTESTKSKDESMRSHLVKPGSVYDGIEPGELGETTESVQDRVRQLESRNSFLEEQCSQIESEKRYLENQKIKYEREIRKLQSELDRMKTSPLIIGTVIDVIKNDRIIVRSSNGPQFLVNVSQYIDEKKLLPGAKVALNQHTLAIAEVIPSTEEPFVAAMEVIESVEVDYDQIGGLDEQIQELQEAVELPLTSPERFARIGIEPPKGVLLYGLPGTGKTLLAKAVAHRTNATFIRVVGSELVQKYIGDGSKLVREIFEMARKKAPSIIFIDELDSIAARRLNETTGADREVQRTLMQLLAEMDGFDKRKNIRIIAATNRPDVLDPAILRPGRFDRLVHVPMPGIEARGKILKIHCEKMTLAEDIDFKKLAKATEGMSGADLKAIATEAGMFAVRRDKELVEMEEFLEAVEKVSMAADTQKMMPSNLPETMFV	not soluble
MSLAEGNYISRIRAKIGHDPLIMINTFAVLWNEKHDAIFLEQRADIPDGWGFPGGFVEYGESPMDAIVREVKEETNLDVKVKNMFEMISSVNPHNFWGDAQQNLSLGFEIELLDGKLQVDQSETLAAEFVPINPEPKMFVPAAQANMHRILTWEDRPKPWLIDSNIKSHSEGHHHHHH	soluble
MAHHHHHHMKKKVELKFLGGLESYLEDKSKNVVTLEIESEKLSFENLIAYIRNHILVDRKDVFADHVLCDGTEFCQVVVDHVERKNYNLNEKAKIKPGIIVLINEYDWEIMHMYEYQIRDGDKLCFLSTLHGG	not soluble
MTLYEYDGSHVRKRVFQNTSWIFVTGDRYDIETLYDQLDSTRLKYEYSTMPDIYGYQDGIKIWVRPSHARMVGEIIFSNIGYGRRYRVYNADIDPVLRFMASNGLSFFEMRSVYDPDPDLNVAMVDCSHGKCIVDGEAMGDGRIYDRLMDSHVIVYEGTEQFYRKLMALGIRARYYPGKSFTSYGQISYRDSYLDIADRIAINSRSFFYAESGLSGIYEVSRISHLPPLYVSIVTPGTAVSSMELAEAVKKGMLVPFKKDDHENPKTKWEIMAKDRGGLIFQPLPGLYTDVYEIDFSSMYPSIIVRYDLTPGRISFLPEALEGLLSRRLIYKKMDGESVVYHSRNVALKWLLLTSFGYTGYKNAKFGKIEVHERITELGRKALAEAIAVAHENGFEMIHGIVDSLWIRGSGSIERVVSEISRRTRIDIVVSGHYHWIAFLPERDGTGSPSRYIGLDTSGKYKIRGLMIRRSDVPDLCKAFQMDALRVLSSCTDTRCILEKRREIMDLENYYLRNIRHFPRSYFMVSRKITRRPDEYHVKNLTRSALDLCRDAEELSPGQMISYYVVDEKRKIVDTDGENGIDYGYYRRCLTRALEEINFLFGKNCNIRRLEDFQSFQ	not soluble
MGSDKIHHHHHHMMDRAAIRQQARFELARRDFFYYCHLMASDFYKPSRRYLVELCNDLQGFLSDNEHNVLVINEPPRHGKSRTAGMFVQWLLGNDNDKKIMTGSYNETLSTVFSKNVRNAIQETKADEDVVVFNDIFPDTHIKYGDAAMNLWSLEGGYNNYLATSPTGTATGFGADIIIVDDLIKNAEEANNATVLEKHWEWFTNTMLSRLEEGGKIIIIMTRWHSQDLAGKALIELPKSDYKVKHISMKAYDEATDTMLCDEVLSKQAYLQKTKTMGADIASANYQQEPIDIKGRLYSGFKTYVDKPTFKRISAYTDTADTGKDYLASYIYGVTMDNEAYILDVVFTKEPMEVTEPLLAQKLAEWQVNTCDIESNNGGRGFARNVERLTQDSYQNRYTVFNWFHQSQNKQARILTNTTWAIEHIYFPENWRHRWSELYQNLMSYQREGKNAHDDAADALTGVVEAINDKIRTKAKVKRKSLYGL	not soluble
MGSDKIHHHHHHMYVLAIDQSTSGTKAIIFDEKGGIVHRVTVYHKQYYPKPGWVEHDPEEIFRNTLDACRKVIEESGIKPLEIEALAITNQRETTILWEKKSGKPVYNAVVWQCQRGASLCEEIKKRGLEGKIKEKTGLVVDPYFSASKIRWILDNVEGVKNKAKQGEIAFGTVDSWLIWKLTKGEVHATDFSNASRTLLLNIHELRWDEEVLEIFEIPPEILPELKSSDSVFGYTDLGFLPKKIPIVGVMGDSSAALFGQGGFYSGDIKVTYGTGSSTMLNIGEKPNVSDSPIVCSVGWVVKETSSYVLEGNIHSAGDTIVWLKEKLGIISDPSETEKIALSLENNGGVYLVPAFVGLGAPYWRSDVKAAILGLQRNHGKEHVVRAALESIAYQVRDIFEEMVRISSKEPTEVRADGGITRNRFLMQFQADILNIPVLVSNIEEVSARGVAFVALLHLGAFSDLEEIRQKITYREKYEPRMGDELREMYYEGWKTAIRKLLTE	not soluble
MTSAEMTSPNNNSEHQAIAKMRTMIEGFDDISHGGLPIGRSTLVSGTSGTGKTLFSIQFLYNGIIEFDEPGVFVTFEETPQDIIKNARSFGWDLAKLVDEGKLFILDASPDPEGQEVVGGFDLSALIERINYAIQKYRARRVSIDSVTSVFQQYDASSVVRRELFRLVARLKQIGATTVMTTERIEEYGPIARYGVEEFVSDNVVILRNVLEGERRRRTLEILKLRGTSHMKGEYPFTITDHGINIFPLGAMRLTQRSSNVRVSSGVVRLDEMCGGGFFKDSIILATGATGTGKTLLVSRFVENACANKERAILFAYEESRAQLLRNAYSWGMDFEEMERQNLLKIVCAYPESAGLEDHLQIIKSEINDFKPARIAIDSLSALARGVSNNAFRQFVIGVTGYAKQEEITGLFTNTSDQFMGAHSITDSHIATITDTIILLQYVEIRGEMSRAINVFKMRGSWHDKAIREFMISDKGPDIKDSFRNFERIISGSPTRITVDEKSELSRIVRGVQEKGPES	soluble
MSSAGVALSPVRSEPLIMPLVRANSCLDSYPDDTIMIYLTLPGSVIPMRVLESDSIESVKLRIQSYRGFVVRNQKLVFGGRELARSNSNMRDYGVSEGNILHLVLKLSDLQVLDVKTTCGKHCRFHVERGRNIGYVKKQISKKRGDFVDPDEQEILYEGEKLEDQSLINDICRNDDSVLHLLVRRSAKVRVKPVEKNFELSIVAPQAKDKKGREAKSIVPPKKLSLEPVVVNSKAKVPLVVKDMIQSASDGLKSGNSPVRSSEGTGGAYFMQGPSGNKFVGVFKPIDEEPMAENNPQGLPLSPNGEGLKKGTKVGEGALREVAAYILDHPKSGNKSMFGEEIGFAGVPPTAMIECLHPGFNHPKGIKTKIGSLQMFTENDGSCEDMGPLSFPVEEVHKISVLDIRLANADRHGGNILMTKDESGKLVLVPIDHGYCLPESFEDCTFEWLYWPQARKPYSAETQEYIRSLDAEEDIDLLKFHGWKMPAETAQTLRISTMLLKKGVERGLTAFEIGTIMCRETLSKKSLVEEMVEEAQEAVLPGTSEAAFLEALSDVMDYHLDHSQEH	not soluble
PPIHPLTRAKLPDPYLMPVVSWNQSPQPPTTKEDALAKNPNREPIRCVDYHPFGVIGGRDILYGIVWGTRTA	not soluble
MFGNHGQLFRLSVFRSADTAQQFLRQCYQQLQRDDAVQRSYANCYPFLYYLEHGQNFYAAAQQAPLSIKPVLLFYGMVQLLKACLLTVDPDYPESTSVLAHGVSARKRKKQGYEFLDDEVKIQKNGLFAHFSEKMFHVKQEAGEKFRMGTLLQRIGELHETFFLLSGRKKPLSLPVVHTASPPMLAIPKVILDHYHMSLSRFVQYLCEEGQGKRLSFAKEEGEFLYFHIESPLSPAGEGPFLFHLDGTLRIPVKKEKTFSLPEIHAHYLLLYNLSMISRYETEWWSELLHSYPSKAYTFILEFLSVSAEKVPLLLHEYLMRKFLG	not soluble
TLLPQVQEVAYNQMANAGYEGAVVAIKPSTGEILAMASTPSYDPSAIVNPDTAEQTWAALNADPGNPLLNHATQETLPPGSTFKVITTAAGLNAGYGPGSMLTGQDRITLPDGITTLENYAGQTCAGSQNVTLATAFQYSCNTAFVQMGIDVGKEKFDEAAHAFGVNDRYDLGVDMAPGTIGDVSDPSARGQSSIGQRDVAMSVLHNAVVAATVANGGKRMEPHLVNRIVGQDLKVIKETKPHQINEAVTPEVAATLTDLMRLSERHTAGYTGADIASKTGTAEHGEDSRNSNPHAWYIAFGPSANADVAVAVVVKNGGDAGQAATGGSVAAPIGRAVIAAAQAALAARG	not soluble
MDTSSFETDLSLFKYDDLEALPDEYRELTPTARTERIEAARAELGDDVVVLGHNYQRREIVEHADFVGDSYQLSKEAANADADYVIFGGVTFMAESADIITDDSQSVILPSMEASCPMAGMAEALQVDAAWADITAAAPDETIIPITYMNSYADLKAFCAEQGGLVCTSSNAHRAFEWAFERGDKVLFLPDKHLGENTAHRLGMADATVEWDPWAAEGKTAEEVADADIVLWDGYCQVHERFTPEHVAEVRADHEDANVVVHPECRREVVEAADVVGSTATITETVADADPGETWAIGTEIHLANHLQRWHPEVNVVPLCGDACMDCNAMRQIDPNYLAWVLEELVEGRERNVIEVDSEEAELAQVGLDRMLELLEHHHHHH	not soluble
